Measurements taken from the supplement of paper PMC9170038.

Key:
MS2 coat protein [1] = test: apparent KD of MS2 coat protein, switch OFF state (with FMN for OFF switches, without FMN for ON switches); designed switch direction (-1 OFF switch, 1 ON switch): -1; higher = weaker reporter binding; conditions: FMN input: 0 or 200 uM; Eterna round: R93 (includes R88 designs)
How it was run: (§1)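 Values are apparent KD, taken as the median for each design of fits to normalised binding curves from individual clusters. The designed RNA switches were transcribed on-chip from Illumina sequencing clusters and exposed to SNAP-549-labelled MS2 coat protein at twofold increasing amounts from 0.7 or 1.5 nM to 3 µM. Titration used 100 mM Tris-HCl pH 7.5, 80 mM KCl and 4 mM MgCl2, without or with constant ligand.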

MS2 coat protein [2] = test: apparent KD of MS2 coat protein, switch ON state; designed switch direction (-1 OFF switch, 1 ON switch): -1; higher = weaker reporter binding; conditions: FMN input: 0 or 200 uM; Eterna round: R93 (includes R88 designs)
How it was run: as §1

Row | Sequence | apparent KD of MS2 coat protein (MS2 coat protein [1]) [nM] | apparent KD of MS2 coat protein (MS2 coat protein [2]) [nM]
1 | AAAACUGGAGGAUAUACGUACAUGUCAAAAGACGUGAAGGGACAUGAGGAUCACCCAUGUAGAAGGCUAGAAAA [JL Stem Breaker 8] | 28.6 | 74.2
2 | AAAAGCUCAGGAUAUACGGUCUGUUGUUGAGAAAUAUCGAAACAUGAGGAUCACCCAUGUAGAAGGGAGCGAAA [Exclusion2-cac2] | 269 | 108
3 | AAAAGGGCAGGAUAUGCGUACUCACGGGAAAGCUGGAUGGUACAUGAGGAUCACCCAUGUAGAAGGGCUAAAAA [Dora Explored 18 - Jieux - Exclusion 2] | 21.4 | 32.8
4 | AAAAGGUGAGGAUAUUCGAAAAUAAAAGAAAAUAAAAGAAAGAAGAAGGCACAUGAGGAUCACCCAUGUAAUAA [LROPPY Exclusion 4 - v02_deltaG=2.94 break up the As mixed] | 27 | 30.1
5 | AAAAGUAGAGGAUAUACAUGAGGAUCACCCAUGUAGAAAGGAAGUGUAUAUAUGGCGUGUAGAAGGCUGCAUGA [Power strip] | 32.3 | 29.3
6 | AAAAGUGGAGGAUAUACAUGAGGAUCACCCAUGUGUAAAAAUAAAUACACAAAAGAAAGUAGAAGGCCACAAAA [Ex 3 May 10] | 122 | 25.8
7 | AAAAUACAUGAGGAUCACCCAUGUGAGGAUAUGCGAAUAAAAAUAAAAUAAAAUAAAAGCAGAAGGCACGAAAA [EX 1 May 24] | 32.8 | 33.4
8 | AAAAUGUGAGGAUAUGUACGAAAAAAUAAAAAAAUAAAAGUACAGAAGGCACAUGAGGAUCACCCAUGUGGGAA [EX4 399: Minimal 12] | 94 | 158
9 | AAACAACAUGAGGAUCACCCAUGUCAGGAUAUGAACGAAAAUAAAUAAAAAUAAAAGUUCAGAAGGGACGAAAA [66%, Wbt, 16] | 49.7 | 31.6
10 | AAACCACAUGAGGAUCACCCAUGUUAGGAUAUGCUAUGGAAAUAAAAAAUAAAACAUAGCAGAAGGGACAAAAA [Mat - Exclusion 1 - Eli mod - D35] | 19.3 | 19.7
11 | AAACGUAGAGGAUAUACAAAAAGAUUACGAAAGUAAUCGGGACAUGAGGAUCACCCAUGUAGAAGGCUACGAAA [Mod2 of Meechl 64% 2] | 94.5 | 36.7
12 | AAAGAUGGAGGAUAUACAUGAGGAUCACCCAUGUAAAAAAAAAAGAGGGAAAAAGAAAGUAGAAGGCCACAAAA [Ex 3 May 44] | 46.4 | 83.1
13 | AAAGCGGCAGGAUAUACAGGAACAAAAGUAUGUGCAUCCGCACAUGAGGAUCACCCAUGUAGAAGGGCUAAUAA [Ontiti] | 270 | 167
14 | AAAGGAUCAGGAUAUGUGUGGAAAAAGUGUAUCCAAAAAAAACAUGAGGAUCACCCAUGUAGAAGGGAUCCAAA [Mod 2 of Normal (20/19) by Nando, Round 1] | 441 | 177
15 | AAAGUGUGAGGAUAUGUCAAAGGUCACGAAAGUGACAAAGGGCAGAAGGUACAUGAGGAUCACCCAUGUAAAAA [Opal 1] | 19.9 | 24
16 | AAAUACCAAGGAUAUACAUGAGGAUCACCCAUGUACAAACCCGUGGAACGGAUCGUUGGUAGAAGGUGGAAAUA [Isleusso] | 12.2 | 13.4
17 | AAAUAGCAAGGAUAUACAUGAGGAUCACCCAUGUGACCCAGGUAUGGCAUAGAAUAGAGUAGAAGGUGCAAAUA [Mod 4 of Ex 3 Tesla 8 - Jieux - Exclusion 3] | 149 | 132
18 | AAAUAGUUAGGAUAUACAUGAGGAUCACCCAUGUGGACUUAUGGAGAAUAAUUUAAUGGUAGAAGGGACUAAAA [EX2 Malc#26] | 45.5 | 54.3
19 | AAAUUAGGAGGAUAUACAUGAGGAUCACCCAUGUGACGAUGUUACUGCAUGAAGUCAAGUAGAAGGUCUAAGAA [Cearar] | 44.2 | 31.7
